Here are results for five molecules from patent US20260209373A1 (TIANJIN MEDICAL UNIVERSITY GENERAL HOSPITAL, published 2026).

For assay [1], the target named is human BAFFR-his protein (Acro, BAR-HP2H6) (human) (UniProt Q96RJ3). Description: competition ELISA; plate-coated human BAFFR-his, competitor biotin human BAFF his at 0.2 ug/mL.
Assay [2] addresses T1, human BAFFR on HEK-293T-BAFFR cells (human, UniProt Q96RJ3 1-184).
T1 sequence: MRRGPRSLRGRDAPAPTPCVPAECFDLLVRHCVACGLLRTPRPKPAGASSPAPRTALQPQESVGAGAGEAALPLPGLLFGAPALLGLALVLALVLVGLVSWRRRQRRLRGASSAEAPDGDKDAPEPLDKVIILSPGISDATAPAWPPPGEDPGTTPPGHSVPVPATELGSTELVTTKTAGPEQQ
Description: flow cytometry on HEK-293T-BAFFR cells, anti-human Fc-647 secondary. The protocol: The cells were resuspended in a suitable volume of staining solution for flow cytometry, so that the final cell concentration per tube reached 2×10⁵ cells/mL.
The antibodies NB467-55, NB467-46, NB467-35, and NB467-8 produced in Example 1, and Lanalumab were respectively diluted to 200 nM. […] After incubation, the cells were washed once with a FACS buffer.
The anti-human FC-647 secondary antibody (Jackson, 109-605-003) was diluted according to the instructions, and 100 μl of the diluted secondary antibody was added to a sample tube. After uniform mixing, the system was incubated at 4° C. for 60 min. After incubation, the cells were washed 3 times with FACS, and the cell precipitate obtained by centrifugation was resuspended in 200 μl of PBS and detected by flow cytometry (Sony, SA3800).

For assay [3], the target named is T1, human BAFFR on HEK-293T-BAFFR cells. Description: cell-based or functional assay.
The target of assay [4] is T2, human BAFFR-his protein (Acro, BAR-HP2H6) (human, UniProt Q96RJ3 7-71, limits assumed).
T2 construct: Bought protein; not shown: his tag
T2 sequence: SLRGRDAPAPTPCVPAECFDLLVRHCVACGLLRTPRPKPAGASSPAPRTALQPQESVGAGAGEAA
Description: competition ELISA; plate-coated human BAFFR-his, competitor biotin human BAFF his at 0.2 ug/mL. The protocol:
Specifically, human BAFFR-his protein (Acro, BAR-HP2H6) was added to a 96-well microplate at 200 ng/well and incubated at 4° C. overnight. On the following day, the plate was washed 3 times with PBST. Then the plate was blocked with 5% w/v skim milk in PBST at 37° C. for 1 h, and then washed with PBS.
The antibody to be tested was 1:3 diluted over gradients from a concentration of 800 nM (diluted with 5% skim milk). Biotin Human BAFF his protein (Acro, BAF-H82Q2) was diluted to 0.2 μg/mL. Control group: 50 μL of diluted Biotin Human BAFF his protein and 50 μL of 5% milk. Experimental group: 50 μL of diluted Biotin Human BAFF his protein and 50 μL of antibody diluted over gradients.
Then, the antibody/Biotin Human BAFF his mixture was added to a plate coated with Human BAFFR-his protein, and incubated at 37° C. for 1 h. The plate was washed 5 times with PBST. The secondary antibody (Chengdu NBbiolab Biotechnology Co., Ltd.) 1:10K diluted with a blocking solution was added and incubate at 37° C. for 1 h. The plate incubated with the secondary antibody was washed 5 times with PBST. 100 μl of a TMB monocomponent developing solution was added to each well, and incubated at 37° C. for 7 min. The reaction was terminated with 50 μL/well of 1 M HCL, and then the absorption value at 450 nm was determined. The median inhibition concentration (IC50 value) was obtained by analyzing the data with Graphpad Prism software.
(In an ELISA, binding on a coated surface is turned into a signal by an enzyme label.)

What is called IC50 is the concentration that inhibits the measured activity by half. Low readings indicate higher potency, high ones lower potency. In general, EC50 refers to the concentration at which the effect is half-maximal. Read a high EC50 as lower potency in that assay. Molecule Lanalumab (antibody) came in with an IC50 in assay [1] of 310 nM. The EC50 in assay [2] turned out to be 3.58 nM. For the same molecule, the EC50 (ng/ml), ADCC reporter assay (Jurkat-NFAT-CD16a luciferase) in assay [3] stood at 56.5 ng/mL.

B1: NB467-35 (Fc fusion)
chain: QVQLVESGGGLVQPGGSLRLSCAASGFSLEYYAIGWFRQTPGKEREAISCIDSPAKSTYYADSVKGRFTISRDNSKNTVYLQMNSLKAEDTAVYYCAADVYYRGSYLYRSCNPTESKYWGQGTQVTVSS
notes: also called nanobody NB467-35; anti-BAFFR nanobody; not shown: Human IgG1 Fc fused to the VHH
As to B1, in assay [2], the EC50 was found to be 3.24 nM. In assay [3], the “EC50 (ng/ml), ADCC reporter assay (Jurkat-NFAT-CD16a luciferase)” value (“EC50 (ng/ml), ADCC reporter assay” for short) was determined as 2.67 ng/mL. In addition, the concentration for half-maximal inhibition (IC50) in assay [4] was 5.13 nM.

B2: NB467-46 (Fc fusion)
chain: EVQVVESGGGLVQPGGSLRLSCAASGFSLTYYAIGWFRQAPGKEREGVACISGGGDQLYYTDSVKGRFTISRDNAKNTVYLHMNSLKPEDTAVYYCAADVYYSGSYNYRSCNPAESKYWGQGTQVTVSS
notes: also called nanobody NB467-46; anti-BAFFR nanobody; not shown: Human IgG1 Fc fused to the VHH
In assay [2], B2 came in with an EC50 of 1.55 nM. The “EC50 (ng/ml), ADCC reporter assay” value in assay [3] was determined as 4.55 ng/mL. Further, the IC50 in assay [4] worked out at 30.5 nM.

B3: NB467-55 (Fc fusion)
chain: EVQVVESGGDLVQPGGSLKLSCQASGFSLTYYAIGWFRQAPGKEREEISCISGDGGMTYYADPVKGRFTISRDNGRNTVYLQMNSLKPEDTAVYYCAADVYYNGNYYSRSCNPAESKYWGQGTQVTVSA
notes: also called nanobody NB467-55; anti-BAFFR nanobody; not shown: Human IgG1 Fc fused to the VHH
In the case of B3, the EC50 in assay [2] is 1.55 nM. The “EC50 (ng/ml), ADCC reporter assay” value in assay [3] stood at 5.09 ng/mL. In assay [4], this molecule returned an IC50 of 40.5 nM.

B4: NB467-8 (Fc fusion)
chain: QVQLVESGGGLVQPGGSLRLSCAASGFSLEYYAIGWFRHIPGKEREAVSCISSPGDSTWYVDSVKGRFTISRDNAKNTVYLQMNSLKPEDTAVYHCAADVYYSGSYLSRSCNPHESKYWGQGTQVTVSS
notes: also called nanobody NB467-8; anti-BAFFR nanobody; not shown: Human IgG1 Fc fused to the VHH
B4: a half-maximal response in assay [2] (EC50) required 1.76 nM. For the same molecule, in assay [3], the “EC50 (ng/ml), ADCC reporter assay” value was 2.89 ng/mL. In assay [4], this molecule yielded an IC50 of 30.5 nM.
